Key:
[1] = target: Prolink (PK)-tagged CXC chemokine receptor 4 (CXCR4) (UniProt P61073)
[2] = target: Prolink (PK)-tagged CXC chemokine receptor 4 (CXCR4) (UniProt P61073); remark: listed apart in the source

Sequence of UniProt P61073 (P61073 whole entry): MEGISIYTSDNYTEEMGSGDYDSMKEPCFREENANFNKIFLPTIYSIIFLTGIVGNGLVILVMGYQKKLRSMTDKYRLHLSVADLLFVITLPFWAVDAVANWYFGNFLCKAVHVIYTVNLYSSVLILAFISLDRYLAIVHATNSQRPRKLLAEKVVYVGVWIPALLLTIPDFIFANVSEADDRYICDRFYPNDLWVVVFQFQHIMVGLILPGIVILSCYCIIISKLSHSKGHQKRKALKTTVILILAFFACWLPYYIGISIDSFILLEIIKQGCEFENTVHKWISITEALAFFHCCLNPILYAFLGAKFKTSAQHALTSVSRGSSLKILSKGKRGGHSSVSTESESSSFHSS

Q: With “CXC chemokine ligand 12 (CXCL12) (from UniProt P48061 22-93)” as the substance, how does the half-time of internalization of SNAP-tagged CXCR4 in HEK293A cells with 1 µM CXCL12 (constitutive: 22.1 min) [1] read?
A: 14.1 min

Q: What about the real-time internalization of N-terminally SNAP-tagged CXCR4 in HEK293A cells, CXCL12 0.1 nM to 1 µM, potency of CXCL12 (pEC50) [1] of the same substance?
A: 7.7 pEC50

Q: What about the β-arrestin2 recruitment to PK-tagged CXCR4 (PathHunter, C2C12 cells), potency of CXCL12 (pEC50) [2] of the same substance?
A: 7.7 pEC50

Reference: paper PMC8115334
